Experimental findings from patent publication US20240270865A1 (INNATE PHARMA, published 2024) are described below.

First the molecules themselves.
B1: H2L2 (antibody, human IgG1, V domains shown)
VH: QIQLVQSGAEVKKPGASVKVSCKASGYAFTSYNMYWVRQAPGQSLEWMGYIDPYNGGSSYNLTFKGRVTITVDKSASTAYMELSSLRSEDTAVYYCARGYGNYKAWFAYWGQGTLVTVSS
VL: DIQMTQSPSSLSASVGDRVTITCKASQSVSNDVAWYQQKPGKAPKLLIYYASTRYTGVPDRFSGSGYGTDFTFTISSLQPEDIATYYCQQDYSSLTFGQGTKLEIK
notes: also called H2 variant
B2: H3L4 (antibody, human IgG1, V domains shown)
VH: QIQLVQSGAEVKKPGASVKVSCKASGYAFTSYNMYWVRQAPGQSLEWIGYIDPYNGGSSYNLTFKGKATITVDKSASTAYMELSSLRSEDTAVYYCARGYGNYKAWFAYWGQGTLVTVSS
VL: DVQMTQSPSSLSASVGDRVTITCKASQSVSNDVAWYQQKPGKAPKLLIYYASTRYTGVPDRFSGSGYGTDFTFTISSLQPEDIATYFCQQDYSSLTFGQGTKLEIK
notes: also called H3 variant
B3: H2L3 (antibody, human IgG1, V domains shown)
VH: QIQLVQSGAEVKKPGASVKVSCKASGYAFTSYNMYWVRQAPGQSLEWMGYIDPYNGGSSYNLTFKGRVTITVDKSASTAYMELSSLRSEDTAVYYCARGYGNYKAWFAYWGQGTLVTVSS
VL: DVQMTQSPSSLSASVGDRVTITCKASQSVSNDVAWYQQKPGKAPKLLIYYASTRYTGVPDRFSGSGYGTDFTFTISSLQPEDIATYYCQQDYSSLTFGQGTKLEIK
notes: also called H2 variant
B4: H2L1 (antibody, human IgG1, V domains shown)
VH: QIQLVQSGAEVKKPGASVKVSCKASGYAFTSYNMYWVRQAPGQSLEWMGYIDPYNGGSSYNLTFKGRVTITVDKSASTAYMELSSLRSEDTAVYYCARGYGNYKAWFAYWGQGTLVTVSS
VL: DIQMTQSPSSLSASVGDRVTITCKASQSVSNDVAWYQQKPGKAPKLLIYYASTRYTGVPSRFSGSGYGTDFTFTISSLQPEDIATYYCQQDYSSLTFGQGTKLEIK
notes: also called H2 variant
B5: H1L3 (antibody, human IgG1, V domains shown)
VH: QIQLVQSGAEVKKPGASVKVSCKASGYTFTSYNMYWVRQAPGQRLEWMGYIDPYNGGSSYNLTFKGRVTITRDKSASTAYMELSSLRSEDTAVYYCARGYGNYKAWFAYWGQGTLVTVSS
VL: DVQMTQSPSSLSASVGDRVTITCKASQSVSNDVAWYQQKPGKAPKLLIYYASTRYTGVPDRFSGSGYGTDFTFTISSLQPEDIATYYCQQDYSSLTFGQGTKLEIK
notes: also called H1 variant
B6: H3L3 (antibody, human IgG1, V domains shown)
VH: QIQLVQSGAEVKKPGASVKVSCKASGYAFTSYNMYWVRQAPGQSLEWIGYIDPYNGGSSYNLTFKGKATITVDKSASTAYMELSSLRSEDTAVYYCARGYGNYKAWFAYWGQGTLVTVSS
VL: DVQMTQSPSSLSASVGDRVTITCKASQSVSNDVAWYQQKPGKAPKLLIYYASTRYTGVPDRFSGSGYGTDFTFTISSLQPEDIATYYCQQDYSSLTFGQGTKLEIK
notes: also called H3 variant
B7: H4L1 (antibody, human IgG1, V domains shown)
VH: QIQLVQSGAEVKKPGASVKVSCKASGYAFASYNMYWVRQAPGQSLEWIGYIDPYNGGSSYNLTFKGKATLTVDKSASTAYMELSSLRSEDTAVYYCARGYGNYKAWFAYWGQGTLVTVSS
VL: DIQMTQSPSSLSASVGDRVTITCKASQSVSNDVAWYQQKPGKAPKLLIYYASTRYTGVPSRFSGSGYGTDFTFTISSLQPEDIATYYCQQDYSSLTFGQGTKLEIK
notes: also called H4 variant
B8: H3L2 (antibody, human IgG1, V domains shown)
VH: QIQLVQSGAEVKKPGASVKVSCKASGYAFTSYNMYWVRQAPGQSLEWIGYIDPYNGGSSYNLTFKGKATITVDKSASTAYMELSSLRSEDTAVYYCARGYGNYKAWFAYWGQGTLVTVSS
VL: DIQMTQSPSSLSASVGDRVTITCKASQSVSNDVAWYQQKPGKAPKLLIYYASTRYTGVPDRFSGSGYGTDFTFTISSLQPEDIATYYCQQDYSSLTFGQGTKLEIK
notes: also called H3 variant
B9: H4L3 (antibody, human IgG1, V domains shown)
VH: QIQLVQSGAEVKKPGASVKVSCKASGYAFASYNMYWVRQAPGQSLEWIGYIDPYNGGSSYNLTFKGKATLTVDKSASTAYMELSSLRSEDTAVYYCARGYGNYKAWFAYWGQGTLVTVSS
VL: DVQMTQSPSSLSASVGDRVTITCKASQSVSNDVAWYQQKPGKAPKLLIYYASTRYTGVPDRFSGSGYGTDFTFTISSLQPEDIATYYCQQDYSSLTFGQGTKLEIK
notes: also called H4 variant
B10: H4L4 (antibody, human IgG1, V domains shown)
VH: QIQLVQSGAEVKKPGASVKVSCKASGYAFASYNMYWVRQAPGQSLEWIGYIDPYNGGSSYNLTFKGKATLTVDKSASTAYMELSSLRSEDTAVYYCARGYGNYKAWFAYWGQGTLVTVSS
VL: DVQMTQSPSSLSASVGDRVTITCKASQSVSNDVAWYQQKPGKAPKLLIYYASTRYTGVPDRFSGSGYGTDFTFTISSLQPEDIATYFCQQDYSSLTFGQGTKLEIK
notes: also called H4 variant
B11: H1L1 (antibody, human IgG1, V domains shown)
VH: QIQLVQSGAEVKKPGASVKVSCKASGYTFTSYNMYWVRQAPGQRLEWMGYIDPYNGGSSYNLTFKGRVTITRDKSASTAYMELSSLRSEDTAVYYCARGYGNYKAWFAYWGQGTLVTVSS
VL: DIQMTQSPSSLSASVGDRVTITCKASQSVSNDVAWYQQKPGKAPKLLIYYASTRYTGVPSRFSGSGYGTDFTFTISSLQPEDIATYYCQQDYSSLTFGQGTKLEIK
notes: also called H1 variant
B12: H4L2 (antibody, human IgG1, V domains shown)
VH: QIQLVQSGAEVKKPGASVKVSCKASGYAFASYNMYWVRQAPGQSLEWIGYIDPYNGGSSYNLTFKGKATLTVDKSASTAYMELSSLRSEDTAVYYCARGYGNYKAWFAYWGQGTLVTVSS
VL: DIQMTQSPSSLSASVGDRVTITCKASQSVSNDVAWYQQKPGKAPKLLIYYASTRYTGVPDRFSGSGYGTDFTFTISSLQPEDIATYYCQQDYSSLTFGQGTKLEIK
notes: also called H4 variant
B13: H1L4 (antibody, human IgG1, V domains shown)
VH: QIQLVQSGAEVKKPGASVKVSCKASGYTFTSYNMYWVRQAPGQRLEWMGYIDPYNGGSSYNLTFKGRVTITRDKSASTAYMELSSLRSEDTAVYYCARGYGNYKAWFAYWGQGTLVTVSS
VL: DVQMTQSPSSLSASVGDRVTITCKASQSVSNDVAWYQQKPGKAPKLLIYYASTRYTGVPDRFSGSGYGTDFTFTISSLQPEDIATYFCQQDYSSLTFGQGTKLEIK
notes: also called H1 variant
B14: H1L2 (antibody, human IgG1, V domains shown)
VH: QIQLVQSGAEVKKPGASVKVSCKASGYTFTSYNMYWVRQAPGQRLEWMGYIDPYNGGSSYNLTFKGRVTITRDKSASTAYMELSSLRSEDTAVYYCARGYGNYKAWFAYWGQGTLVTVSS
VL: DIQMTQSPSSLSASVGDRVTITCKASQSVSNDVAWYQQKPGKAPKLLIYYASTRYTGVPDRFSGSGYGTDFTFTISSLQPEDIATYYCQQDYSSLTFGQGTKLEIK
notes: also called H1 variant
B15: H2L4 (antibody, human IgG1, V domains shown)
VH: QIQLVQSGAEVKKPGASVKVSCKASGYAFTSYNMYWVRQAPGQSLEWMGYIDPYNGGSSYNLTFKGRVTITVDKSASTAYMELSSLRSEDTAVYYCARGYGNYKAWFAYWGQGTLVTVSS
VL: DVQMTQSPSSLSASVGDRVTITCKASQSVSNDVAWYQQKPGKAPKLLIYYASTRYTGVPDRFSGSGYGTDFTFTISSLQPEDIATYFCQQDYSSLTFGQGTKLEIK
notes: also called H2 variant
B16: H3L1 (antibody, human IgG1, V domains shown)
VH: QIQLVQSGAEVKKPGASVKVSCKASGYAFTSYNMYWVRQAPGQSLEWIGYIDPYNGGSSYNLTFKGKATITVDKSASTAYMELSSLRSEDTAVYYCARGYGNYKAWFAYWGQGTLVTVSS
VL: DIQMTQSPSSLSASVGDRVTITCKASQSVSNDVAWYQQKPGKAPKLLIYYASTRYTGVPSRFSGSGYGTDFTFTISSLQPEDIATYYCQQDYSSLTFGQGTKLEIK
notes: also called H3 variant

This test has as its target T1, recombinant human soluble CD73 protein (cloned huCD73 with C-terminal 6xHis tag) (human, UniProt P21589 27-547).
T1 construct: also called recombinant CD73 protein; CD73 recombinant protein
T1 sequence: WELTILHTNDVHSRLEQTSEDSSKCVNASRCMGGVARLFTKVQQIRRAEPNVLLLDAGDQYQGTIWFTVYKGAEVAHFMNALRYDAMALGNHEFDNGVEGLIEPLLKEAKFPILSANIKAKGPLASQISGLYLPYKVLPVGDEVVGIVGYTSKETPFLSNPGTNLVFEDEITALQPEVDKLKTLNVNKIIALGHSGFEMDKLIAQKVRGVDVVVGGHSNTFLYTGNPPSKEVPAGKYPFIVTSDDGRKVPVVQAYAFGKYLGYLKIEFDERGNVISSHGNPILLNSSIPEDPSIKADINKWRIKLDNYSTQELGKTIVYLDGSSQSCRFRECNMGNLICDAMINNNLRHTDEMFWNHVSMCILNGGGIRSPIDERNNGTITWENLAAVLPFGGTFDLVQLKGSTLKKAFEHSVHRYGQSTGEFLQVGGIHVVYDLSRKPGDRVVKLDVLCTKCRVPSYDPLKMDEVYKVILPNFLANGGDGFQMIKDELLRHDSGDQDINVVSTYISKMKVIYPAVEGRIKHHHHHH
The test is described as follows: SPR, recombinant CD73 protein. The method, then:
SPR measurements were performed on a Biacore™ T200 apparatus at 25° C. Protein-A (GE Healthcare) was immobilized on a Sensor Chip CM5 (GE Healthcare). […] The entire sensorgram sets were fitted using the 1:1 kinetic binding model. Bivalent affinities and kinetic association and dissociation rate constants are calculated.
Regarding B1, the binding result is listed as “binds”.

Take B2: the binding result is reported as “binds”.

Take B3: the binding result is recorded as “binds”.

B4: the binding result is reported as “binds”.

Turning to B5, the binding result was “binds”.

As to B6, the binding result is “binds”.

On to B7, for which the binding result is listed as “binds”.

As for B8, the binding result is “binds”.

Take B9: the binding result is recorded as “binds”.

With B10, the binding result was “binds”.

Take B11: the binding result is “binds”.

Regarding B12, the binding result was “binds”.

As for B13, the binding result is “binds”.

Consider B14, for which the binding result is recorded as “binds”.

For B15, the binding result is “binds”.

In the case of B16, the binding result is “binds”.
